From patent publication US20160030510

Molecular target: human tau protein, P10636
Sequence (P10636 whole entry, looked up): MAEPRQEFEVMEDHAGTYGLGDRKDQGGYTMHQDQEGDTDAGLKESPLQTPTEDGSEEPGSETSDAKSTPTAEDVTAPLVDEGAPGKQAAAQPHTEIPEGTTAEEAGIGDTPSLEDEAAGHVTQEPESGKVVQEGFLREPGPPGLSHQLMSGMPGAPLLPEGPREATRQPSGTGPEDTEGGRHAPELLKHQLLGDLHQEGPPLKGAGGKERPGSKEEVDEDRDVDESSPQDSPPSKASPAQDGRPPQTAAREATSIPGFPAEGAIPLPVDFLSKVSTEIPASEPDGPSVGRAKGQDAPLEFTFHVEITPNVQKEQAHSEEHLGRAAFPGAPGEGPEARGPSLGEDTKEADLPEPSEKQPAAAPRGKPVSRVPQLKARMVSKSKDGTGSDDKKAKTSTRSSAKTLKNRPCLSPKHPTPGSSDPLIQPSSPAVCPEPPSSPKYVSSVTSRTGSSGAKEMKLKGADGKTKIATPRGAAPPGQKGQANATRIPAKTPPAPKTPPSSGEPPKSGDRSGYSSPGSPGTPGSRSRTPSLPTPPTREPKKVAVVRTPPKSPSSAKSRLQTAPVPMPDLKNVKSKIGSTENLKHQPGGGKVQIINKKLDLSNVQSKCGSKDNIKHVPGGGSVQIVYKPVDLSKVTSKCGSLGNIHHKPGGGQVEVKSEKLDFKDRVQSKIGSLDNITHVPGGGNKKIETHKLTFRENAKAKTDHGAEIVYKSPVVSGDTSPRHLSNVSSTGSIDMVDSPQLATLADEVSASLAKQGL

B1: human MARK4 (microtubule affinity regulating kinase 4) (protein)
chain: MSSRTVLAPGNDRNSDTHGTLGSGRSSDKGPSWSSRSLGARCRNSIASCPEEQPHVGNYRLLRTIGKGNFAKVKLARHILTGREVAIKIIDKTQLNPSSLQKLFREVRIMKGLNHPNIVKLFEVIETEKTLYLVMEYASAGEVFDYLVSHGRMKEKEARAKFRQIVSAVHYCHQKNIVHRDLKAENLLLDAEANIKIADFGFSNEFTLGSKLDTFCGSPPYAAPELFQGKKYDGPEVDIWSLGVILYTLVSGSLPFDGHNLKELRERVLRGKYRVPFYMSTDCESILRRFLVLNPAKRCTLEQIMKDKWINIGYEGEELKPYTEPEEDFGDTKRIEVMVGMGYTREEIKESLTSQKYNEVTATYLLLGRKTEEGGDRGAPGLALARVRAPSDTTNGTSSSKGTSHSKGQRSSSSTYHRQRRHSDFCGPSPAPLHPKRSPTSTGEAELKEERLPGRKASCSTAGSGSRGLPPSSPMVSSAHNPNKAEIPERRKDSTSTPNNLPPSMMTRRNTYVCTERPGAERPSLLPNGKENSSGTPRVPPASPSSHSLAPPSGERSRLARGSTIRSTFHGGQVRDRRAGGGGGGGVQNGPPASPTLAHEAAPLPAGRPRPTTNLFTKLTSKLTRRVADEPERIGGPEVTSCHLPWDQTETAPRLLRFPWSVKLTSSRPPEALMAALRQATAAARCRCRQPQPFLLACLHGGAGGPEPLSHFEVEVCQLPRPGLRGVLFRRVAGTALAFRTLVTRISNDLEL
in vitro kinase assay: phospho-tau, Western blot: the levels of total tau and phospho-tau generated by MARK4 were detected by Western blot analysis
